{
  "source": "paper PMC9882600",
  "about": "“Asymmetric gating of a human hetero-pentameric glycine receptor” (Research Square, 2023)",
  "key": {"[1]": {"biological_target": "human glycine receptor β subunit, cryo-EM construct βem (human) (UniProt P48167)", "sequence (P48167 23-497)": "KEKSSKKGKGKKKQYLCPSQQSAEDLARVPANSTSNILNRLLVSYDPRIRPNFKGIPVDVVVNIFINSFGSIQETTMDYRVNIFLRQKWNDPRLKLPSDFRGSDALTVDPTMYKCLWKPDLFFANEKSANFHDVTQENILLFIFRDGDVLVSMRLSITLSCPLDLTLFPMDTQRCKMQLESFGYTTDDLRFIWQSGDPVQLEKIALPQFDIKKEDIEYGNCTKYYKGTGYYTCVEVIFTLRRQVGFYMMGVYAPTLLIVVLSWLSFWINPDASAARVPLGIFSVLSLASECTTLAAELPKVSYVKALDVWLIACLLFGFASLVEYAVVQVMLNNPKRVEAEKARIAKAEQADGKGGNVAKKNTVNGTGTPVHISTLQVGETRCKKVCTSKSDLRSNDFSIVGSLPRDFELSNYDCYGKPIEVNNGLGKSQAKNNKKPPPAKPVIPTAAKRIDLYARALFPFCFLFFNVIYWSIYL", "experiment": "cryo-EM structure; α1emβem GlyR co-expressed and purified as a complex, 6 mg/ml in 20 mM Tris pH 8.0, 200 mM NaCl, 0.06% digitonin; vitrified without ligand (apo) or after 1 h with 2 mM glycine on ice (open, expanded-open, desensitized classes); ~3 mM fluorinated fos-choline 8 added before freezing"}, "[2]": {"biological_target": "the molecule itself", "experiment": "cryo-EM structure; α1emβem GlyR co-expressed and purified as a complex, 6 mg/ml in 20 mM Tris pH 8.0, 200 mM NaCl, 0.06% digitonin; vitrified without ligand (apo) or after 1 h with 2 mM glycine on ice (open, expanded-open, desensitized classes); ~3 mM fluorinated fos-choline 8 added before freezing"}},
  "data": [
    {"binder": "human glycine receptor α1 subunit, cryo-EM construct α1em (receptor, glycine receptor α1 subunit, human, NCBI NP_001139512.1; residues before the M3/M4 loop stretch R316-P381 that was replaced by GSSG; the lists of unbuilt residues begin at A1 and give 367 aa in total; linker that replaces the M3/M4 loop residues R316-P381; residues after the replaced M3/M4 loop stretch, to Q429 (last residue named in the lists of unbuilt residues); Four copies stand in the …) ARSAPKPMSPSDFLDKLMGRTSGYDARIRPNFKGPPVNVSCNIFINSFGSIAETTMDYRVNIFLRQQWNDPRLAYNEYPDDSLDLDPSMLDSIWKPDLFFANEKGAHFHEITTDNKLLRISRNGNVLYSIRITLTLACPMDLKNFPMDVQTCIMQLESFGYTMNDLIFEWQEQGAVQVADGLTLPQFILKEEKDLRYCTKHYNTGKFTCIEARFHLERQMGYYLIQMYIPSLLIVILSWISFWINMDAAPARVGLGITTVLTMTTQSSGSRASLPKVSYVKAIDIWMAVCLLFVFSALLEYAAVNFVSRQHKELLGSSGEEMRKLFIQRAKKIDKISRIGFPMAFLIFNMFYWIIYKIVRREDVHNQ", "values": [
      {"measurement": "stoichiometry N", "setting": "[1]", "result": "4 α1:β"},
      {"measurement": "binding result", "setting": "[2]", "result": "binds"}
    ]}
  ]
}
